Test results from patent publication CN109810193A (SHENZHEN INST ADV TECH, dated 2019).

Tests used:
[1] = biological target: jurkat细胞表面的DR5蛋白 (UniProt O14763 56-440, limits assumed); test: cell-based or functional assay
[2] = biological target: T1, 人DR4抗原 (human, UniProt O00220 24-239, limits assumed); test: ELISA, DR4 coated, goat anti-mouse IgG-HRP, OD450
T1 construct: also called death receptor 4
T1 sequence (looked up): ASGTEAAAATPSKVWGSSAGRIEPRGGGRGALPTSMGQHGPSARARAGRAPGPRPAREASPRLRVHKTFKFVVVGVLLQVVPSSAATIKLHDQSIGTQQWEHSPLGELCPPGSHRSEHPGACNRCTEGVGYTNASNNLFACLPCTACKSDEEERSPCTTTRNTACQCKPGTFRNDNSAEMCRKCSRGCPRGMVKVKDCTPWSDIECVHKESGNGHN

[3] = biological target: T2, sDR5-Fc蛋白 (UniProt O14763 56-182, limits assumed); test: BLI (OCTET K2), sDR5-Fc 10 ug/ml captured on AHC sensors, 6C93D6 at 76-4.75 nM in solution
T2 construct: Immunogen and BLI ligand; not shown: it was captured on AHC (Anti-hIgG Fc Capture) sensors

[4] = biological target: sDR5-Fc-biotin (UniProt O14763); test: competition ELISA: sDR5-Fc-biotin 7.5 ug/ml preincubated with 6C93D6 30 ug/ml, added to coated human TRAIL (5 ug/ml); Streptavidin-HRP; the OD is the remaining binding of the complex to TRAIL

B1: 6C93D6抗体 (抗DR5的单克隆抗体) (antibody, V domains shown)
VH: EVQLQQSGPDLVKPGASVKISCKASGYSFTGHYMHWVKQSHGQSLEWIGRVNPNNGGTGYNQKFKDKAILTVDKPSSTAYMELRSLTSEDSAVYYCARNGAYYRSDGNYFDYWGQGTTLTVSS
VL: DIVLTQSTPSLAVSLGQRATISCRASESVDSYGNSFMHWFQQKPGQPPKLLIYRASNLESGIPARFSGSGSRTDFTLTINPVEADDVATYYCQQSNEDPYTFGGGTKLEIK
notes: Mouse hybridoma monoclonal antibody purified from ascites on Protein G
诱导HepaRG细胞凋亡的EC50 (1ug/ml交联剂 anti-mouse IgG Fc antibody; MTS/PMS, A490-A630) [1]: 68.5 pg/mL
诱导HepaRG细胞凋亡的EC50 (无交联剂; MTS/PMS, A490-A630) [1]: 1.1 µg/mL
binding result [2]: no binding
Kd [3]: 6.77 nM
OD450 [4]: 0.105
